Key:
GBV-B NS5B ΔCT19 [1] = target: T1, GBV-B NS5B ΔCT19 (Hepatitis GB virus B, UniProt Q69422); assay: Scintillation proximity assay (SPA) of RdRp activity; format: biochemical
T1 construct: initiator methionine (N); made in house; host or cells: E. coli JM109 (DE3)
T1 sequence (Q69422 2275-2845 limits assumed): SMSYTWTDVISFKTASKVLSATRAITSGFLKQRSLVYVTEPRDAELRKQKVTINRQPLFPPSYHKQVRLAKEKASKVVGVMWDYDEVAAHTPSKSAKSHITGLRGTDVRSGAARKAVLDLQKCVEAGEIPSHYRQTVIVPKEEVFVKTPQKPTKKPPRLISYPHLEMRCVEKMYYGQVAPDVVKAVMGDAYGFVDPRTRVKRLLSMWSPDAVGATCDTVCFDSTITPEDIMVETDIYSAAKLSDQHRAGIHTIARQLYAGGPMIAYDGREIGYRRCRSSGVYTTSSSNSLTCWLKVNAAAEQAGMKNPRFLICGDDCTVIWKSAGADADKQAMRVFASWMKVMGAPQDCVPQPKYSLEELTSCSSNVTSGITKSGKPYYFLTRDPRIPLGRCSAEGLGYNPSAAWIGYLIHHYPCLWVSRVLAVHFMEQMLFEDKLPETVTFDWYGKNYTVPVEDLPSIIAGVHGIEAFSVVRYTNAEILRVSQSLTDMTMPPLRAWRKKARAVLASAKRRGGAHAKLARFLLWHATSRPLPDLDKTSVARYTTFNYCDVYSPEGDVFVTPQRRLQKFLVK
Protocol: Scintillation proximity assay (SPA). SPA was used to determine the standard activity of RdRp, and performed under standard conditions as described previously by Ferrari et al., supra. Briefly, reaction mixtures (50 μl in total volume) containing, in addition to other buffer components (20 mM HEPES, pH7.3, 7.5 mM DTT, 10 mM MnCl2, 100 mM NaCl, 50 μg/ml BSA and 2 units of RNasin), 250 ng of poly(C), 25 ng of biotinylated oligo(G)12, 5 μM GTP/ 0.1 μCi of ^3H-GTP and 175 ng of GBV-B NS5B protein were incubated in a 96-well plate at room temperature for 3 hours. The reactions were terminated by addition of 50 μl of 100 mM EDTA in phosphate-buffered saline (PBS), the products were captured by SPA beads coated with streptavidin and ^3H-GMP incorporation was determined with a scintillation counter.

[2] = test system: GBV-B NS4A cofactor peptide (4A17; amino acids 20-36 of GBV-B NS4A)
[3] = test system: HCV NS4A cofactor peptide (4A13; aa 22-34 of HCV NS4A)
[4] = test system: GBV-B NS4A peptide (4A31; aa 16-46 of GBV-B NS4A)
[5] = test system: GBV-B NS4A 15-mer peptide (amino acids 22-36)
[6] = test system: GBV-B NS4A 18-mer peptide (amino acids 29-46)
GBV-B NS5B ΔCT19 [7] = target: T1, GBV-B NS5B ΔCT19; assay: RNA-binding (gel-shift) competition assay; settings: for affinity order of binding to NS5B ΔCT19: competition with nonradiolabeled RNA homopolymers
Protocol: RNA-binding assay. The RNA binding assay was performed in a 10 μl reaction mixture containing 20 mM HEPES, pH 7.3, 7.5 mM MnCl2, 7.5 mM DTT, 5% glycerol, 125 mM NaCl, 100 μg per ml of BSA, 1 unit of RNase inhibitor, 100 ng of GBV-B NS5B protein, 1 pmol of an end-labeled RNA probe with the sequence of 5′-U28GGACUU CGGUCC-3′, and increasing amounts of homopolymeric RNA as depicted indicated in FIG. 12. The probe bound most tightly to the GBV-B NS5B among all the RNA probes of similar length tested (data not shown). Following incubation at room temperature for 30 min, the reaction mixture was separated on a nondenaturing 6% polyacrylamide gel at 180 volts for 1.25 hrs in 0.5×TBE buffer. The gel was dried and subjected to autoradiography.

GBV-B NS5B ΔCT19 [8] = target: T1, GBV-B NS5B ΔCT19; assay: Gel-based RdRp assay; format: biochemical; settings: ZnCl2 0, 1, 2.5, 5, 7.5, 10 μM
Protocol: Gel-based RdRp assay. Standard activity assays were performed in a reaction mixture (40 μl) containing 20 mM HEPES, pH 7.3, 15 mM MnCl2, 100 μM of ATP, UTP, GTP and 10 μCi of α-^33P-CTP, 300 ng of purified protein and 0.2 μg of a 36-base synthetic RNA (5′-GGA25UAUAUAUAU-3′). The sequence of the RNA was designed to form a stem-loop at the 3′-end to support the “copy-back” priming of RNA synthesis. The polymerization reaction was performed at 30° C. for 1 hr and terminated by phenol and chloroform extraction. RNA was ethanol precipitated and separated on a 15% TBE/6 M urea polyacrylamide gel (Novex). The gel was fixed, vacuum dried and subjected to autoradiography.

For `[Cl][Mn][Cl]` [Mn^2+, MnCl2], the “optimal concentration of divalent cation for polymerase activity” value (GBV-B NS5B ΔCT19 [1]; titration 0-20 mM) was 15 mM.
For “full-length HCV NS3 protease (HCV His-NS3)”, the “trans-cleavage of HCV and GBV-B NS4A/4B substrates by 50 nM HCV NS3 with 100 uM peptide (SDS-PAGE)” value [2] was “protease activation is dependent upon an NS4A cofactor from the same virus (HCV NS3 not activated by the GBV-B NS4A peptide)”, the “trans-cleavage of GBV-B NS4A/4B substrate by HCV NS3 with or without 100 uM peptide (SDS-PAGE)” value [3] was “dose-dependent and NS4A cofactor-enhanced cleavage activity at the NS4A/4B junction site” and the “trans-cleavage of GBV-B NS4A/4B substrate by full-length HCV NS3 with HCV NS4A peptide (SDS-PAGE)” value [3] was “also generated the cleavage products in an HCV NS4A cofactor-dependent manner”. For the same compound, the “trans-cleavage of GBV-B NS5A/5B substrate by HCV NS3 with or without 100 uM peptide (SDS-PAGE)” value [3] was “Cleavage of the GBV-B NS5A/5B site was inefficient and required 10 µM of HCV NS3 protease and was cofactor dependent” and the “trans-cleavage of HCV and GBV-B NS4A/4B substrates by 50 nM HCV NS3 with 100 uM peptide (SDS-PAGE)” value [3] was “protease activation is dependent upon an NS4A cofactor from the same virus (HCV NS3 activated by the HCV NS4A peptide)”.
In the case of “full-length GBV-B NS3 protease (GBV-B NS3-His)”, the “trans-cleavage of GBV-B NS4A/4B substrate by 2 uM GBV-B NS3 with or without 20 uM peptide (SDS-PAGE)” value [4] is reported as “cleavage at the NS4A/NS4B junction by wild type GBV-B NS3 occurs only in the presence of the GBV-B NS4A cofactor”, the “trans-cleavage of GBV-B NS5A/5B substrate by 2 uM GBV-B NS3 with or without 20 uM peptide (SDS-PAGE)” value [4] is reported as “processing at the NS5A/NS5B junction is also NS4A cofactor-dependent” and the “trans-cleavage of in vitro translated HCV NS4A/4B, NS4B/5A and NS5A/5B substrates by GBV-B NS3 with or without 20 uM peptide (SDS-PAGE)” value [4] is reported as “substrate processing was greatly improved by the NS4A peptide”. The “cofactor activity: enhancement of cleavage of GBV-B NS4A/4B substrate by 1.5 uM GBV-B NS3 (phosphorimaging)” value (“cofactor activity: enhancement” below) [5] was “a 15-mer peptide (amino acids 22-36), which is the minimum region that efficiently activates protease activity for trans-cleavage”, the “cofactor activity: enhancement” value [2] was “a 17-mer peptide derived from amino acid 20 to 36 of NS4A retained the cofactor activity” and the “trans-cleavage of HCV (250 nM protease) and GBV-B (2 uM protease) NS4A/4B substrates by GBV-B NS3 with 100 uM peptide (SDS-PAGE)” value [2] was “protease activation is dependent upon an NS4A cofactor from the same virus (GBV-B NS3 activated by the GBV-B NS4A peptide)”. For the same compound, the “cofactor activity: enhancement” value [6] was “did not possess the cofactor activity as it failed to enhance the protease activity” and the “trans-cleavage of HCV (250 nM protease) and GBV-B (2 uM protease) NS4A/4B substrates by GBV-B NS3 with 100 uM peptide (SDS-PAGE)” value [3] was “protease activation is dependent upon an NS4A cofactor from the same virus (GBV-B NS3 not activated by the HCV NS4A peptide)”.
`[Cl-].[Cl-].[Mg+2]` [Mg^2+, MgCl2] was tested, and the “ability of divalent cation to support RdRp activity” value (GBV-B NS5B ΔCT19 [1]; concentrations as high as 20 mM) was “could not replace Mn^2+ to support the activity”.
For poly (C), the “affinity order of binding to NS5B ΔCT19” value (GBV-B NS5B ΔCT19 [7]) was “poly (U)>poly (G)>poly (A)>poly (C)”.
`[Cl-].[Cl-].[Zn+2]` [Zn^2+, ZnCl2] was tested, and the “inhibition of GBV-B RdRp activity” value (GBV-B NS5B ΔCT19 [8]) was “inhibits GBV-B RdRp activity at low-micromolar (μM) concentrations”.
`OCC(O)CO` [Glycerol] was tested, and the “concentration at which RdRp activity is inhibited” value (GBV-B NS5B ΔCT19 [1]; poly C template, oligoG12 primer) was “higher than 3%”.
With poly (A) the “affinity order of binding to NS5B ΔCT19” value (GBV-B NS5B ΔCT19 [7]) was “poly (U)>poly (G)>poly (A)>poly (C)”.
poly (U) was tested, and the “competition for binding of NS5B ΔCT19 to labeled RNA probe” value (GBV-B NS5B ΔCT19 [7]; 0.1, 1, 10, 100 x probe) was “competes most efficiently for binding” and the “affinity order of binding to NS5B ΔCT19” value (GBV-B NS5B ΔCT19 [7]) was “poly (U)>poly (G)>poly (A)>poly (C)”.
